Measurements published in patent US20260256927A1 (Merck Sharp & Dohme, published 2026).

Legend:
[1] = target: T1, IL-2Rα-Fc (Acro Biosystems, catalog #ILA-H5251) (UniProt P01589 22-217, limits assumed); assay: SPR (Biacore T200), kinetic; receptor-Fc captured on anti-Fc CM5 chip, IL-2 variant as analyte; conjugated to DBCO 2 x 10 kDa PEG (PEG2)
T1 construct: Bought reagent; Captured on an anti-Fc chip as SPR ligand; also called CD25; not shown: Fc part of the bought fusion
T1 sequence (looked up): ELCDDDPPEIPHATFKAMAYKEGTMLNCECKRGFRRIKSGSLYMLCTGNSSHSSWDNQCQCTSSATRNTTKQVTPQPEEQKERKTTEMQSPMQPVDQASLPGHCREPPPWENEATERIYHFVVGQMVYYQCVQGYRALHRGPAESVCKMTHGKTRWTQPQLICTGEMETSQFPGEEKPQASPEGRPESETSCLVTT
Method: (§1) Anti-Fc polyclonal antibodies were immobilized onto a CM5 chip (GE Life Sciences) using amine coupling chemistry (from Amine Coupling Kit, GE Life Sciences). The immobilization steps were carried out at a flow rate of 25 μL/minute in 1×HBS-EP+ buffer (GE Life Sciences; 10× Stock diluted before use). The sensor surfaces were activated for 7 minutes with a mixture of NHS (0.05 M) and EDC (0.2 M). The anti-Fc antibodies were injected over all four flow cells at a concentration of 25 μg/mL in 10 mM sodium acetate, pH 4.5, for seven minutes. Ethanolamine (1 M, pH 8.5) was injected for seven minutes to block any remaining activated groups.
(§2) Kinetic binding experiments were performed at 25° C. using 1×HBS-EP+ with 0.05% BSA buffer. IL-2Rα-Fc or IL-2Rβ-Fc (Acro Biosystems, catalog #ILA-H5251, ILB-H5253) was injected over the anti-Fc surface at concentrations of 3-10 μg/mL for 12 seconds at a flow rate of 10 μL/minute on flow cells 2, 3 and 4, followed by a buffer wash for 30 seconds at the same flow rate. Kinetic characterization of conjugated or unconjugated aldesleukin or variants was carried out in a range of concentrations from 1 nM-10 μM and one injection of no antigen. After capturing ligand (IL-2Rα-Fc or IL-2Rβ-Fc) on the anti-Fc surface, the analyte (IL-2 variant) was bound for 60 seconds, followed by a 180 second dissociation phase at a flow rate of 50 μL/min. […]

[2] = target: T2, IL-2Rβ-Fc (Acro Biosystems, catalog #ILB-H5253) (UniProt P14784 27-239, limits assumed); assay: SPR (Biacore T200), kinetic; receptor-Fc captured on anti-Fc CM5 chip, IL-2 variant as analyte
T2 construct: Bought reagent; Captured on an anti-Fc chip as SPR ligand; also called CD122; not shown: Fc part of the bought fusion
T2 sequence (looked up): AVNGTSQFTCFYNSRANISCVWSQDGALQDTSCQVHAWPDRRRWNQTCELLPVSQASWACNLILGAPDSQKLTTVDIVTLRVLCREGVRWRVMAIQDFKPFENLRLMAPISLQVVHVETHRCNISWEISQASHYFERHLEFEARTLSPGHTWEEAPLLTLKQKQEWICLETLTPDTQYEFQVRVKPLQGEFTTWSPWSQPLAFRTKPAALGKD
Method: as §1
Kinetic binding experiments were performed at 25° C. using 1×HBS-EP+ with 0.05% BSA buffer. IL-2Rα-Fc or IL-2Rβ-Fc (Acro Biosystems, catalog #ILA-H5251, ILB-H5253) was injected over the anti-Fc surface at concentrations of 3-10 μg/mL for 12 seconds at a flow rate of 10 μL/minute on flow cells 2, 3 and 4, followed by a buffer wash for 30 seconds at the same flow rate. Kinetic characterization of conjugated or unconjugated aldesleukin or variants was carried out in a range of concentrations from 1 nM-10 μM and one injection of no antigen. After capturing ligand (IL-2Rα-Fc or IL-2Rβ-Fc) on the anti-Fc surface, the analyte (IL-2 variant) was bound for 60 seconds, followed by a 180 second dissociation phase at a flow rate of 50 μL/min. Between each ligand capture and analyte binding cycle, regeneration was carried out using two injections of 10 mM Glycine pH 1.5 for 30 seconds at 30 μL/minute, followed by a 30 second buffer wash step.

[3] = target: T1, IL-2Rα-Fc (Acro Biosystems, catalog …); assay: SPR (Biacore T200), kinetic; receptor-Fc captured on anti-Fc CM5 chip, IL-2 variant as analyte; unconjugated (pAMF incorporated, no PEG)
Method: as §1, §2

| Binder | Kd [1] | Kd [2] | Kd [3] |
| --- | --- | --- | --- |
| Ald-6HIS_K34pAMF (SP9833) conjugated to DBCO 2 x 10 kDa PEG (PEG2) (ligand, X35 = pAMF (K34) conjugated to branched 20 kDa PEG (DBCO 2 x 10 kDa PEG, PEG2), also called SP9833 PEG2 conjugated) MPTSSSTKKTQLQLEHLLLDLQMILNGINNYKNPFLTRMLTFKFYMPKKATELKHLQCLEEELKPLEEVLNLAQSKNFHLRPRDLISNINVIVLELKGSETTFMCEYADETATIVEFLNRWITFSQSIISTLTGGSHHHHHH | 800 nM |  |  |
| Ald-6HIS_K34pAMF (SP9833), unconjugated (ligand, X35 = pAMF (K34 in SEQ ID NO: 2/3 numbering), also called Aldesleukin-6His K34TAG p-azidomethyl-L-phenylalanine) MPTSSSTKKTQLQLEHLLLDLQMILNGINNYKNPFLTRMLTFKFYMPKKATELKHLQCLEEELKPLEEVLNLAQSKNFHLRPRDLISNINVIVLELKGSETTFMCEYADETATIVEFLNRWITFSQSIISTLTGGSHHHHHH |  | 300 nM | 7 nM |
